Data reported in US20040018971A1 (published 2004).

What was measured:
HLA-A*0101 [1] = target: T1, HLA-A*0101 (human); assay: competition with a 125I-labelled probe peptide for purified HLA-A*0101, gel filtration; ratio against the A*0101 standard peptide 944.02 [..] (25 nM)
T1 construct: Purified HLA molecule, 5 to 500 nM in the assay; also called HLA-A1

HLA-A*0201 = target: T2, HLA-A*0201 (human); assay: competitive inhibition of 125I-labeled probe peptide binding to purified HLA-A*0201
T2 construct: also called HLA-A2.1; A2.1

[2] = target: HLA-A*0301 (purified HLA class I molecule) (human); assay: competition vs 125I standard peptide, purified HLA
[3] = target: T3, HLA-A*1101 (purified HLA class I molecule) (human); assay: competition vs 125I standard peptide, purified HLA
T3 construct: Purified MHC molecule

[4] = target: T4, HLA-A*3101 (purified HLA class I molecule) (human); assay: competition vs 125I standard peptide, purified HLA
T4 construct: Purified MHC molecule

[5] = target: T5, HLA-A*3301 (purified HLA class I molecule) (human); assay: competition vs 125I standard peptide, purified HLA
T5 construct: Purified MHC molecule

[6] = target: T6, HLA-A*6801 (purified HLA class I molecule) (human); assay: competition vs 125I standard peptide, purified HLA
T6 construct: Purified MHC molecule

HLA-A*0301 = HLA-A*0301 (human); assay: inhibition of 125I-labelled standard peptide binding to purified HLA, gel filtration
HLA-A*1101 = HLA-A*1101 (human); assay: as above
HLA-A*3101 = HLA-A*3101 (human); assay: as above
HLA-A*3301 = HLA-A*3301 (human); assay: as above
HLA-A*6801 = HLA-A*6801 (human); assay: as above
HLA-A*0101 [7] = target: T7, HLA-A*0101 (human); assay: competition with 125I-labelled probe peptide for purified HLA-A*0101, gel filtration
T7 construct: also called HLA-A1

HLA-A*0202 = HLA-A*0202 (human); assay: competition with 125I probe peptide for purified HLA
HLA-A*0203 = HLA-A*0203 (human); assay: as above
HLA-A*0206 = HLA-A*0206 (human); assay: as above
HLA-A*6802 = HLA-A*6802 (human); assay: as above
[8] = target: T8, HLA-A*0301 (purified HLA class I molecule) (human); assay: inhibition of 125I probe peptide binding to purified HLA; ratio to standard peptide; minus sign not explained
T8 construct: also called A3

[9] = target: HLA-A*1101 (purified HLA class I molecule) (human); assay: as above

Binder: TLEEITGY (also called Her2/neu.402 (8-mer)) [HER2/neu peptide, position 402, 8 amino acids]
- relative binding ratio (IC50 of standard peptide / IC50 of test peptide) (HLA-A*0101 [1]): -0.0021 ratio

Binder: QLMPYGCLL [Her2/neu.799]
- IC50 (HLA-A*0201): ≤ 500 nM

Binder: KVLRENTSPK [HER2/neu peptide, position 753, 10 amino acids]
- relative binding ratio [2]: 0.38 ratio (IC50 standard/IC50 test)
- relative binding ratio [3]: 0.22 ratio (IC50 standard/IC50 test)
- relative binding ratio [4]: 0.0068 ratio (IC50 standard/IC50 test)
- relative binding ratio [5]: 0.0012 ratio (IC50 standard/IC50 test)
- relative binding ratio [6]: 0.0008 ratio (IC50 standard/IC50 test)

Binder: TCSPQPEY (also called Her2/neu.1132) [HER2/neu peptide, position 1132, 8 amino acids]
- relative binding ratio (IC50 of standard peptide / IC50 of test peptide) (HLA-A*0101 [1]): -0.0021 ratio

Binder: RILKETELRK (Synthetic A3 supermotif peptide) [HER2/neu peptide, position 713, 10 amino acids]
- relative binding ratio (HLA-A*0301): 0.057 ratio (IC50 of standard peptide / IC50 of test peptide)
- relative binding ratio (HLA-A*1101): 0.11 ratio (IC50 of standard peptide / IC50 of test peptide)
- relative binding ratio (HLA-A*3101): 0.0055 ratio (IC50 of standard peptide / IC50 of test peptide)
- relative binding ratio (HLA-A*3301): 0.0013 ratio (IC50 of standard peptide / IC50 of test peptide)
- relative binding ratio (HLA-A*6801): 0.0002 ratio (IC50 of standard peptide / IC50 of test peptide)

Binder: QVCTGTDMK (Synthetic A3 supermotif peptide) [HER2/neu peptide, position 24, 9 amino acids]
- relative binding ratio (HLA-A*0301): 0.0007 ratio (IC50 of standard peptide / IC50 of test peptide)
- relative binding ratio (HLA-A*1101): 0.052 ratio (IC50 of standard peptide / IC50 of test peptide)
- relative binding ratio (HLA-A*3101): 0.0002 ratio (IC50 of standard peptide / IC50 of test peptide)
- relative binding ratio (HLA-A*3301): 0.0006 ratio (IC50 of standard peptide / IC50 of test peptide)
- relative binding ratio (HLA-A*6801): 0.011 ratio (IC50 of standard peptide / IC50 of test peptide)

Binder: THDPSPLQRY (also called Her2/neu.1103) [HER2/neu peptide, position 1103, 10 amino acids]
- relative binding ratio (IC50 of standard peptide / IC50 of test peptide) (HLA-A*0101 [1]): 0.0015 ratio

Binder: QLFEDNYALA [Her2/neu.106]
- IC50 (HLA-A*0201): ≤ 500 nM

Binder: DMGDLVDAEEY [HER2/neu peptide, position 1013, 11 amino acids]
- relative binding ratio (HLA-A*0101 [7]): 0.0027 ratio (IC50 of standard peptide / IC50 of test peptide)

Binder: GVVFGILIK [HER2/neu peptide, position 668, 9 amino acids]
- relative binding ratio [2]: 0.0047 ratio (IC50 standard/IC50 test)
- relative binding ratio [3]: 0.089 ratio (IC50 standard/IC50 test)
- relative binding ratio [4]: 0.0019 ratio (IC50 standard/IC50 test)
- relative binding ratio [5]: 0.0025 ratio (IC50 standard/IC50 test)
- relative binding ratio [6]: 0.0011 ratio (IC50 standard/IC50 test)

Binder: GLACHQLCA [Her2/neu.508]
- IC50 (HLA-A*0201): ≤ 500 nM

Binder: TLEEITGYLY (also called Her2/neu.402) [HER2/neu peptide, position 402, 10 amino acids]
- relative binding ratio (IC50 of standard peptide / IC50 of test peptide) (HLA-A*0101 [1]): 1.1 ratio

Binder: SVFQNLQVIR (Synthetic A3 supermotif peptide) [HER2/neu peptide, position 423, 10 amino acids]
- relative binding ratio (HLA-A*0301): 0.017 ratio (IC50 of standard peptide / IC50 of test peptide)
- relative binding ratio (HLA-A*1101): 0.075 ratio (IC50 of standard peptide / IC50 of test peptide)
- relative binding ratio (HLA-A*3101): 0.034 ratio (IC50 of standard peptide / IC50 of test peptide)
- relative binding ratio (HLA-A*3301): 0.039 ratio (IC50 of standard peptide / IC50 of test peptide)
- relative binding ratio (HLA-A*6801): 0.25 ratio (IC50 of standard peptide / IC50 of test peptide)

Binder: PSGVKPDLSY [HER2/neu peptide, position 601, 10 amino acids]
- relative binding ratio (HLA-A*0101 [7]): 0.001 ratio (IC50 of standard peptide / IC50 of test peptide)

Binder: ALCRWGLLLA [Her2/neu.5]
- IC50 (HLA-A*0201): ≤ 500 nM

Binder: VTACPYNY (also called Her2/neu.296) [HER2/neu peptide, position 296, 8 amino acids]
- relative binding ratio (IC50 of standard peptide / IC50 of test peptide) (HLA-A*0101 [1]): 0.1 ratio

Binder: ILWKDIFHK (also called Her2/neu.167) [HER2/neu peptide, position 167, 9 amino acids]
- relative binding ratio [2]: 0.28 ratio (IC50 standard/IC50 test)
- relative binding ratio [3]: 0.31 ratio (IC50 standard/IC50 test)
- relative binding ratio [4]: 0.22 ratio (IC50 standard/IC50 test)
- relative binding ratio [5]: 0.03 ratio (IC50 standard/IC50 test)
- relative binding ratio [6]: 0.0046 ratio (IC50 standard/IC50 test)

Binder: LLNWCMQIAK [HER2/neu peptide, position 822, 10 amino acids]
- relative binding ratio [2]: 0.14 ratio (IC50 standard/IC50 test)
- relative binding ratio [3]: 0.14 ratio (IC50 standard/IC50 test)
- relative binding ratio [4]: 0.01 ratio (IC50 standard/IC50 test)
- relative binding ratio [5]: 0.0088 ratio (IC50 standard/IC50 test)
- relative binding ratio [6]: 0.0086 ratio (IC50 standard/IC50 test)

Binder: QLFEDNYALA [Her2/neu.106 (10-mer) QLFEDNYALA]
- IC50 (HLA-A*0202): 662 nM
- IC50 (HLA-A*0203): 9.1 nM
- IC50 (HLA-A*0206): 218 nM
- IC50 (HLA-A*6802): 74 nM

Binder: CAGGCARCK (also called Her2/neu.220 (9-mer)) [HER2/neu peptide, position 220, 9 amino acids]
- relative binding ratio [8]: -0.0002 ratio (IC50 standard / IC50 test)
- relative binding ratio [9]: -0.0002 ratio (IC50 standard / IC50 test)
